Measured values from patent publication US20200317791A1.

Columns and labels:
[1] = molecular target: T1, HLA-Cw6/ADAMTSL5-Abu on rhHLA-Cw6 expressing cells loaded with ADAM-Abu peptide (human), P10321; experiment: cell-based or functional assay
[2] = molecular target: T1, HLA-Cw6/ADAMTSL5-Abu on rhHLA-Cw6 …

IL-2 % Inhibition (8.5 nM mAb), HLA-Cw6-00290 [1] [%] | IC50 (read off the curve) [2] [µg/mL] | IL-2 % Inhibition (8.5 nM mAb), HLA-Cw6-00254 [1] [%] | Binder
100 |  |  | CW6B228 (antibody, V domains shown) VH: QVQLQESGPGLVKPSETLSLTCTVSGNSIRSYYWSWIRQPAGKGLEWIGRIYISGNTNYNPSLKSRVTMSIDTSKNQFSLKLSSVTAADTAVYYCARLSGIDAFDIWGQGTMVTVSS VL: DIQMTQSPSSLSASVGDRVTITCQASQDINNYLNWYQQKPGKAPKLLIYDASSLETGVPSRFSGSGSGTDFTFTISSLQPEDFATYYCQQYDDLPITFGQGTRLEIK
93 | 0.2 |  | CW6B230 (antibody, V domains shown) VH: QVQLQESGPGLVKPSETLSLTCTVSGNSISNYYWSWIRQPAGKGLEWIGRIYITGNTNYNPSLKSRVTMSLDTSKNQFSLKLSSVTAADTAVYYCARLSGIDAFDIWGQGTMVTVSS VL: DIQMTQSPSTLSASVGDRVTFTCQASQDITKYLNWYQQKPGKAPKLLIYDASNLETGVPSRFSGSGSGTDFTFTISSLQPEDFATYYCQQYDDLPITFGQGTRLEIK
91 | 0.2 |  | CW6B233 (antibody, V domains shown) VH: QVQLQESGPGLVKPSETLSLTCTVSGNSIRSYYWSWIRQPAGKGLEWIGRIYISGNTNYNPSLKSRVTMSIDTSKNQFSLKLSSVTAADTAVYYCARLSGIDAFDIWGQGTMVTVSS VL: DIQMTQSPSSLSASVGDRVTITCQASQDITNYLNWYQQKPGKAPKLLIYDASNLETGVPSRFSGSGSGTDFTFTISSLQPEDFATYYCQQYDNLPITFGQGTRLEIK
86 | 0.2 |  | CW6B229 (antibody, V domains shown) VH: QVQLQESGPGLVKPSETLSLTCTVSGNSIRSYYWSWIRQPAGKGLEWIGRIYISGNTNYNPSLKSRVTMSIDTSKNQFSLKLSSVTAADTAVFYCARLSGIDAFDIWGQGTMVTVSS VL: DIQMTQSPSSLSASVGDRVTITCQASQDISNYLNWYQQKPGKAPKLLIYDASNLETGVPSRFSGSGSGTDFTFTISSLQPEDFATYYCQQYDNLPITFGQGTRLEIK
86 | 0.2 |  | CW6B238 (antibody, V domains shown) VH: QVTLKESGPVLVKPTETLTLTCTVSGFSLNNARMGVSWIRQPPGKALEWLAHMFSSDEKFYRTSLKSRLTISKDTSKSQVVLTMTNMDPVDTATYYCARISLYSSGHDTFDLWGQGTMVTVSS VL: AIQMTQSPSSLSASVGDRVTITCRASQDIRNTLGWYQQKPGKAPNLLIYAASSLQSGVPSRFSGSGSGTDFTLTISSLQPEDFATYYCLQDYDYPLTFGGGTKVEIK
59 |  |  | CW6B237 (antibody, V domains shown) VH: QVTLKESGPVLVKPTETLTLTCTVSGFSLSNARMGVSWIRQPPGKALEWLAHIFSHDEKFYSTFLKSRLTISKDTSKSQVVLMMTNMDPVDTATYYCARIILSSSGHDAFDIWGQGTMVTVSS VL: AIQMTQSPSSLSASVGDRVTITCRASQDIRHNLGWYQQKPGKAPNLLIYAASSLQSGVPSRFSGSGSGTDFILTISSLQPEDFATFFCLQDYIYPLTFGGGTKVEIK
100 | 0.03 | 100 | CW6B130 (antibody, V domains shown) VH: QLQLQESGPGLVKPSETLSLTCTVSGASISSINYYWGWIRQPPGKGLEWIGSFYYSGNTYYNPSLKSRVTISVDTSKNYFSLKLNSVTAADTAVYYCAREYYDSSGYYPFEPWGQGTLVTVSS VL: SYVLTQPPSVSVAPGQTARITCGGDNIGSESVHWYQQKPGQAPVLVVYDDTDRPSGIPERFSGSKSGTTATLTISWVEAGDEADYYCQVWDSSSDHVVFGGGTKLTVL
 |  | 9 | CW6B188 (antibody, V domains shown) VH: EVQLVESGGGLVQPGGSLRLSCAASGFTFTNYWMTWVRQAPGKGLEWVANIKQSGNEKYYVDSVKGRFTISRDNAKNSLYLQMNSLRAEDTAVYYCARTLYEWELEPFDYWGQGTLVTVSS VL: SYVLTQPPSVSVAPGQTARITCGGNRIGSKNLHWYQQKPGQAPVLVVYDDSDRPSGIPERFSGSNSGSTATLTISRVEAGDEADYYCQVWDSSRDHVVFGGGTKLTVL
96 | 0.2 | 85 | CW6B175 (antibody, V domains shown) VH: EVQLVESGGGLVQPGGSLRLSCAASGFTFTNYWMTWVRQAPGKGLEWVANIKQSGSEKYYVDSVKGRFTISRDNAKNSLYLQMNSLRAEDTAVYYCARTLYEWELEPFDYWGQGTLVTVSS VL: SYVLTQPPSVSVAPGQTARITCGGNRIGSKSVHWYQQKPGQAPVLVVFDDSDRPSGIPERFSGSNSGITATLTISRVEAGDEADYYCQVWDSSNDHVVFGGGTKLTVL
